Experimental data: patent US20250108137A1, “APTAMERS SPECIFIC TO EBV-ASSOCIATED MALIGNANCIES AND THEIR APPLICATIONS IN CANCER IMAGING AND THERAPIES” (priority 2022, published 2025)

B1: Apt-1194: DNA aptamer, SEQ ID NO: 2, from Cell-SELEX and in vivo-SELEX on EBV-positive NPC43; binds MTDH (nucleic acid)
DNA: ATCCAGAGTGACGCAGCACCGAGCGAGTTGGTTTGCTGCGGTGGGCAGAGAGGTGGGGTGGACACGGTGGCTTAGT
modifications: DNA, backbone and methylation of C not given here; further chemistry not fully specified
B2: Apt-1798: DNA aptamer, SEQ ID NO: 3, top enriched sequence targeting EBV-positive cells (nucleic acid)
DNA: ATCCAGAGTGACGCAGCAATCGTGGACCTGGCTGTGGTTTGCTGAGGTGGGCGCCAATTGGACACGGTGGCTTAGT
modifications: DNA, backbone and methylation of C not given here
B3: Apt-2019: DNA aptamer, SEQ ID NO: 1, from Cell-SELEX on LMP1-expressing NPC43 cells; binds CNBP (nucleic acid)
DNA: ATCCAGAGTGACGCAGCAGAATGGGTGGGATTCCTCAGAGGGGTTGGTGAGTTTGTGATGGACACGGTGGCTTAGT
modifications: DNA, backbone and methylation of C not given here; further chemistry not fully specified

How the values were obtained:
[1] = Thioflavin T fluorescent enhancement assay for G-quadruplex formation; assay type: physicochemical; details: lithium cacodylate buffer or potassium phosphate buffer
Excerpt: Thioflavin T (ThT) is kind of G4 ligand dye, and its fluorescent signal would increase after binding to G4 structures. So, it is widely used in detecting G4 structure. The Apt-2019 was stained by ThT with the existence of Lit or Kt. Circular dichroism (CD) spectra was used for determination of the subtype of G4 structure.
Both Apt-2019 and Apt-1194 are guanine-rich oligonucleotides (GROs) in which the G content are 43 and 41% respectively. GROs can form stable G-quadruplex structures because four guanine bases form a square planar structure called a G-quartet through Hoogsteen base pairing, and these G-quartets spontaneously assemble into four-stranded helical structures termed G-quadruplex (G4) (FIG. 5A) (20). It is well known that G4-forming oligonucleotides are relatively stable against nuclease degradation (21). Therefore, we checked if Apt-2019 and Apt-1194 can form G4 using Thioflavin T (ThT) as a fluorescence light-up probe for G4 formation (22). […] The higher serum stability of Apt-2019 and Apt-1194 than random non-GC rich aptamers (FIG. 5D) can thus be explained by their stable G4 structure. To further characterize these novel NPC-targeting aptamers, we have measured their equilibrium dissociation constant (Kd).

[2] = test system: EBV-positive C666-1 tumors; experiment: In vivo fluorescence imaging of biodistribution, C666-1 tumors; set-up: species or system mice; details: fluorescence-tagged, tail vein injected, IVIS Spectrum imager
Excerpt: Fluorescence-tagged Apt-2019 and Apt-1194 were tail vein injected in mice bearing C15 tumors (an NPC xenograft with high expression of LMP1 (18)) and EBV-positive C666-1 tumors respectively. […] Tumors and organs (e.g., lungs and spleen) were taken out for fluorescence imaging (IVIS Spectrum imager).

[3] = test system: EBV-positive NPC cell lines (NPC43, C666-1 and C17); experiment: Binding to a panel of EBV-positive and EBV-negative cell lines; details: EBV-positive NPC43, C666-1, C17; EBV-negative A549, NP460
Protocol: (§1) 10 μM aptamers or aptamer pools were dissolved in DBPS with 5 mM MgCl2 as stock and diluted with binding buffer (DBPS with 5 mM MgCl2, 0.1% BSA, […] and 0.45% glucose) into 200 nM, followed by heating at 95° C. to 5 mins and chilling on ice for 5 mins. Cells were trypsinized and incubated in the aptamer solution at 4° C. for 30-60 mins. After incubation, the cells were washed once by precooled binding buffer. At last, the samples were analyzed on BD flowcytometry. For flow cytometric analysis of bead assay, the NTA beads were incubated with CNBP-his or MTDH-his containing cell lysates or control lysates for 1 hr at 4° C. and then washed with binding buffer for 3 times. After that, the beads were incubated with FAM-Apt-2019 or FAM-Apt-1194 (200 nM) for 30 mins at 4° C. At last, the bead-aptamer complexes were washed 3 times with binding buffer and analyzed by BD flow cytometer.
(§2) By binding of Apt-1194 & Apt-1798 with a panel of EBV-positive NPC cell lines (NPC43, C666-1 and C17), EBV-negative lung cancer cell line (A549) and nasopharyngcal cell line (NP460), the specificity of Apt-1194 to EBV-positive cells was confirmed (FIG. 4B). Proteins from NPC43 lysate were pulled down by Apt-1194. […] It has been reported that MTDH is a prognosis marker for NPC (19). […] Knockdown of MTDH could suppress proliferation and migration capability in NPC cells (FIG. 4F)

EBV-positive C666-1 = experiment: Equilibrium dissociation constant on cells, FITC-tagged Apt-1194; assay type: binding; details: serial concentrations of FITC-tagged aptamer
Excerpt: (§3) FIGS. 5A-5G. Characterization of Apt-2019 and Apt-1194. (FIG. 5A) Diagram showing the G-quadraplex structure that can be formed by G-rich aptamers. (FIGS. 5B-5C) Fluorescent enhancement assay (FEA) was used to detect G-quadraplex forming sequences. Both Apt-2019 and Apt-1194 could form into G-quadraplex in the presence of K+ or L+ ions and then light up the ThT ligands. […] (FIGS. 5E-5F) A serial concentrations of FITC-tagged Apt-2019 and Apt-1194 were bound with LMP1-overexpressing NPC43 and EBV-positive C666-1 respectively. Equilibrium dissociation constant (Kd) was then calculated. (FIG. 5G) Apt-2019 was allowed to bind with live NPC cells for 45 mins. Internalization of Apt-2019 was validated by Z-stack imaging of confocal microscope.
(§4) 10 μM aptamers or aptamer pools were dissolved in DBPS with 5 mM MgCl2 as stock and diluted with binding buffer (DBPS with 5 mM MgCl2, 0.1% BSA, […] and 0.45% glucose) into 200 nM, followed by heating at 95° C. to 5 mins and chilling on ice for 5 mins. Cells were trypsinized and incubated in the aptamer solution at 4° C. for 30-60 mins. After incubation, the cells were washed once by precooled binding buffer. At last, the samples were analyzed on BD flowcytometry. […] At last, the bead-aptamer complexes were washed 3 times with binding buffer and analyzed by BD flow cytometer.

MTDH = biological target: T1, MTDH (Homo sapiens, UniProt Q86UE4); experiment: Pull-down from NPC43 lysate with mass spectrometry and western blot; assay type: binding; details: mass spectrometry, validated by Western blot
T1 construct: endogenous in cells; host or cells: EBV-positive NPC43 cells
T1 sequence (Q86UE4 1-582): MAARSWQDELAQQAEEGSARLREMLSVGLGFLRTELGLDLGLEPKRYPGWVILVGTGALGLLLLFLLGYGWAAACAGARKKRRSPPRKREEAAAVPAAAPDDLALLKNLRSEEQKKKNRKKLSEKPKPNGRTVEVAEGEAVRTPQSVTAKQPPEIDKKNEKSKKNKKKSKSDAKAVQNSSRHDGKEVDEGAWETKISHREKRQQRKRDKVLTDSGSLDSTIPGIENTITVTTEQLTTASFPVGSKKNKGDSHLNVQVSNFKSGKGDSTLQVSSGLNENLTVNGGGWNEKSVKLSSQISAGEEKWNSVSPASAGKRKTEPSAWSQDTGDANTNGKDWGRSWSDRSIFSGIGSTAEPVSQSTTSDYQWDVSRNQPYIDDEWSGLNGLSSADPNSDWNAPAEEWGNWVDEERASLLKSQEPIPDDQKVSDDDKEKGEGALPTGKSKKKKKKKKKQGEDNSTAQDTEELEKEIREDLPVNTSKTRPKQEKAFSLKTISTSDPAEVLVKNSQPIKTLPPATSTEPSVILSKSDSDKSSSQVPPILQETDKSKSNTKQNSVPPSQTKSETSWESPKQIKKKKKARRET
Protocol: (§5) The pulldown assay was performed by following the protocol from Shang Guan's lab. Then the protein samples were separated in PAGE gels and stained by pierce silver staining kit from Life Technology. The specific bands around 20 kDa or 70 kDa were sent to Biotech Company (Bei Jing) for mass spectrometry analysis.
as §2

[4] = compared with random aptamer sequences
[5] = test system: LMP1-overexpressing NPC43; experiment: Equilibrium dissociation constant on cells, FITC-tagged Apt-2019; assay type: binding; details: serial concentrations of FITC-tagged aptamer
Excerpt: as §3, §4

CNBP [6] = biological target: T2, CNBP (Homo sapiens, UniProt P62633); experiment: Flow analysis of CNBP-tagged and non-tagged beads with Apt-2019-FAM; assay type: binding; details: Apt-2019-FAM 200 nM; CNBP-tagged vs non-tagged beads
T2 construct: endogenous in cells; host or cells: LMP1-expressing NPC43(noEBV) cell lysate
T2 sequence (P62633 whole entry): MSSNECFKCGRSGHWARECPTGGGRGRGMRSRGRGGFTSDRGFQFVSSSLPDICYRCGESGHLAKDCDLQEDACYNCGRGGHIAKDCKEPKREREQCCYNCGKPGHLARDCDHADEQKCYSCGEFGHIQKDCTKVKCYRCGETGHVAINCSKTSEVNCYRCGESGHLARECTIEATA
Protocol: as §1
(§6) To identify the target surface protein which was bound by the Apt-2019 on LMP1-expressing cells, we have performed pull-down assay using Apt-2019. […] The proteins from this band were purified from the gel and subjected for protein identification by tandem mass spectrometry (MS/MS). […] To validate CNBP as the target of Apt-2019, the pull-down proteins from Apt-2019 and Apt-library in LMP1-cell lysates were blotted by the antibody against CNBP (FIG. 2A). […]

CNBP [7] = biological target: T2, CNBP; experiment: Pull-down assay with mass spectrometry and western blot (LMP1-cell lysates); assay type: binding; details: band around 20 kd vs Apt-library; MS/MS; blotted with CNBP antibody
Protocol: as §5
To identify the target surface protein which was bound by the Apt-2019 on LMP1-expressing cells, we have performed pull-down assay using Apt-2019. […] The proteins from this band were purified from the gel and subjected for protein identification by tandem mass spectrometry (MS/MS). […] To validate CNBP as the target of Apt-2019, the pull-down proteins from Apt-2019 and Apt-library in LMP1-cell lysates were blotted by the antibody against CNBP (FIG. 2A). The docking model between the Apt-2019 and CNBP was also predicted by HDOCK (sec worldwide website: hdock.phys.hust.edu.cn/) (FIG. 2A). Another validation assay was done by flow analysis of CNBP-tagged and non-tagged beads after binding with Apt-2019-FAM (FIG. 2B). […] Moreover, Apt-2019-bounded CNBP was specifically expressed on the cell surface, as both the fluorescent signals of CNBP and Apt-2019 were localized on the ‘non-permeabilized’ NPC43-LMP1 cells. (FIG. 3A). […] All these confirmed Apt-2019 could bind to the cell surface CNBP on NPC cells. […]

[8] = test system: LMP1-expressing NPC43 cells; experiment: Internalization by Z-stack confocal microscopy; assay type: cell-based; details: live cells, 45 mins
Excerpt: as §3
In live cell imaging, the NPC43-LMP1+ and NPC43-LMP1− cells were seeded in 3.5 cm confocal dishes 24 hrs before. The cells were washed with PBS 2 times and then incubated with 200 nM aptamers in binding buffer for 30 mins and washed with DPBS twice after. The Zeiss LSM880 was used for taking confocal images. In immunofluorescence and aptamer co-staining, the cells were fixed by 4% PFA for 15 mins and then blocked with 3% BSA for 1 hr. CNBP antibody was incubated with the cells in 1:100 dilution (Abclonal, 15110) for 1 hr followed with anti-Rabbit Alex-555 antibody (1:500) for 1 h. After washing for 3 times, FAM-Apt-2019 was added and incubated for 1 h.

[9] = test system: LMP1-transfected cell lines including HONE1, C17 and NP460; experiment: Binding to other LMP1-transfected cell lines vs vector control; details: compared to the vector control cells
Protocol: as §1
(§7) Identification of Apt-2019 which preferentially binds to LMP1-expressing cells. […] Flow cytometric analyses have shown the gradual increase of fluorescence signals on NPC43^noEBV-LMP1 cells bound with the FAM-tagged aptamers enriched from round 9, 11 and 12 Cell-SELEX (FIG. 1A), indicating a successful enrichment process. […] 8 sequences were selected out based on the sequence similarity and abundance of sequence reads. […]

[10] = test system: C15 tumors (an NPC xenograft with high expression of LMP1); experiment: In vivo fluorescence imaging of biodistribution, C15 xenograft; set-up: species or system mice; details: fluorescence-tagged, tail vein injected, IVIS Spectrum imager
Excerpt: Fluorescence-tagged Apt-2019 and Apt-1194 were tail vein injected in mice bearing C15 tumors (an NPC xenograft with high expression of LMP1 (18)) and EBV-positive C666-1 tumors respectively. We have also generated control aptamers to Apt-2019 and Apt-1194 by replacing all the G to C, so as to destroy the G4-forming ability. The resulting control aptamers are named as Apt-NG^2019 (SEQ ID NO: 4; Apt-NG^2019 (14-63) Aptamer: […]) and Apt-NG^1194 (SEQ ID NO:5; Apt-NG^1194 (1-58) Aptamer: […] GGCC). Tumors and organs (e.g., lungs and spleen) were taken out for fluorescence imaging (IVIS Spectrum imager).

CNBP-knockout cells = experiment: Aptamer binding to CNBP-knockout vs parental NPC cells
Protocol: as §1, §6

NPC43^noEBV-LMP1 cells = experiment: Flow cytometry and confocal binding to LMP1-expressing cells vs vector control; details: among 8 selected aptamers; flow cytometric analysis and confocal microscopy; FAM-tagged
Protocol: as §1, with “cytometer. […]” for “cytometer.”
as §7

Row | Molecule | G-quadruplex (G4) formation, ThT light-up [1] | accumulation in the tumors [2] | specific binding to EBV-positive vs EBV-negative cell lines [3] | equilibrium dissociation constant (Kd) (EBV-positive C666-1) | target identified by pull-down (MTDH) | serum stability [4] | equilibrium dissociation constant (Kd) [5] | binding to CNBP-tagged beads (CNBP [6]) | target identified by pull-down (CNBP [7]) | internalization into cells [8] | specific binding ability in LMP1-transfected cell lines [9] | accumulation in the tumors [10] | binding after CRISPR-knockout of CNBP (CNBP-knockout cells) | preferential binding to LMP1-expressing cells (NPC43^noEBV-LMP1 cells)
1 | B1 | could fold into G4 | accumulation | could bind specifically to EBV-positive cell lines but not to EBV-negative cell lines | nanomolar range | MTDH was found to be the target | much higher serum stability than random aptamer sequences | – | – | – | – | – | – | – | –
2 | B2 | – | – | could bind specifically to EBV-positive cell lines but not to EBV-negative cell lines | – | – | – | – | – | – | – | – | – | – | –
3 | B3 | could fold into G4 | – | – | – | – | much higher serum stability than random aptamer sequences | nanomolar range | could specifically bind to the CNBP-tagged beads | CNBP was found to be the potential target | could be internalized | could preferentially bind to all these LMP1-overexpressing cells | accumulation | inhibited the binding | highest preferential binding to LMP1-expressing cells
